Data taken from paper PMC5387307, “Diversification of the kinetic properties of yeast NADP‐glutamate‐dehydrogenase isozymes proceeds independently of their evolutionary origin” (MicrobiologyOpen, 2016).
Read-outs that look alike come from different tables or passages of the source.

Key:
[1] = test system: T1, LkGdh1; experiment: NADPH absorbance at […] nm, reductive amination; type: biochemical, Lachancea kluyveri; details: 100 mmol/L Tris pH 7.5, 30°C
T1 construct: gene GDH1; full-length ORF in pET-28a(+), His-tagged, expressed in E. coli BL21, Ni-NTA purified; monomer 54 kD apparent; glutamate IC50: native enzyme in WT extract

[2] = substrate: NC(=O)C1=CN([C@@H]2O[C@H](COP(=O)(O)OP(=O)(O)OC[C@H]3O[C@@H](n4cnc5c(N)ncnc54)[C@H](OP(=O)(O)O)[C@@H]3O)[C@@H](O)[C@H]2O)C=CC1; experiment: purified protein; type: biochemical, Saccharomyces cerevisiae; details: 8 mmol/L α-KG, 100 mmol/L ammonium chloride, 100 mmol/L Tris pH 7.5, 30°C
[3] = substrate: O=C(O)CCC(=O)C(=O)O; experiment: purified protein; type: biochemical, Saccharomyces cerevisiae; details: 250 μmol/L NADPH, 100 mmol/L ammonium chloride, 100 mmol/L Tris pH 7.5, 30°C
[4] = substrate: N; experiment: purified protein; details: 8 mmol/L α-KG, 250 μmol/L NADPH, 100 mmol/L Tris pH 7.5, 30°C

| Molecule | Km [2] | kcat [2] | Km [3] | kcat [3] | Km [4] | kcat [4] | other results |
| --- | --- | --- | --- | --- | --- | --- | --- |
| N [NH4+] | – | – | – | – | – | – | Km ([1]; 8 mmol/L α-KG, 250 μmol/L NADPH, read-out: pH 7.5 / K m-NH4+): 7400 µM |
| NC(=O)C1=CN([C@@H]2O[C@H](COP(=O)(O)OP(=O)(O)OC[C@H]3O[C@@H](n4cnc5c(N)ncnc54)[C@H](OP(=O)(O)O)[C@@H]3O)[C@@H](O)[C@H]2O)C=CC1 [NADPH] | – | – | – | – | – | – | Km ([1]; 8 mmol/L α-KG, 100 mmol/L ammonium chloride, read-out: pH 7.5 / K m-NADPH): 46 µM |
| O=C(O)CCC(=O)C(=O)O [α-KG] | – | – | – | – | – | – | Km ([1]; 250 μmol/L NADPH, 100 mmol/L ammonium chloride, read-out: pH 7.5 / K m-α-KG): 460 µM |
| ScGdh3 (Saccharomyces cerevisiae S288C) (protein, full-length ORF in pET-28a(+), His-tagged, expressed in E. coli BL21, Ni-NTA purified; monomer 55 kD apparent; glutamate IC50: native enzyme in Scgdh1 deletion strain extract) MTSEPEFQQAYDEIVSSVEDSKIFEKFPQYKKVLPIVSVPERIIQFRVTWENDNGEQEVAQGYRVQFNSAKGPYKGGLRFHPSVNLSILKFLGFEQIFKNALTGLDMGGGKGGLCVDLKGKSDNEIRRICYAFMRELSRHIGKDTDVPAGDIGVGGREIGYLFGAYRSYKNSWEGVLTGKGLNWGGSLIRPEATGFGLVYYTQAMIDYATNGKESFEGKRVTISGSGNVAQYAALKVIELGGIVVSLSDSKGCIISETGITSEQIHDIASAKIRFKSLEEIVDEYSTFSESKMKYVAGARPWTHVSNVDIALPCATQNEVSGDEAKALVASGVKFVAEGANMGSTPEAISVFETARSTATNAKDAVWFGPPKAANLGGVAVSGLEMAQNSQKVTWTAERVDQELKKIMINCFNDCIQAAQEYSTEKNTNTLPSLVKGANIASFVMVADAMLDQGDVF | 42 µM | 14 s⁻¹ | 400 µM | 14 s⁻¹ | 6900 µM | 14 s⁻¹ | – |
| ScGdh1 (Saccharomyces cerevisiae S288C) (protein, full-length ORF in pET-28a(+), His-tagged, expressed in E. coli BL21, Ni-NTA purified; monomer 53 kD apparent) SEPEFQQAYEEVVSSLEDSTLFEQHPEYRKVLPIVSVPERIIQFRVTWENDKGEQEVAQGYRVQYNSAKGPYKGGLRFHPSVNLSILKFLGFEQIFKNSLTGLDMGGGKGGLCVDLKGRSNNEIRRICYAFMRELSRHIGQDTDVPAGDIGVGGREIGYLFGAYRSYKNSWEGVLTGKGLNWGGSLIRPEATGYGLVYYTQAMIDYATNGKESFEGKRVTISGSGNVAQYAALKVIELGGTVVSLSDSKGCIISETGITSEQVADISSAKVNFKSLEQIVNEYSTFSENKVQYIAGARPWTHVQKVDIALPCATQNEVSGEEAKALVAQGVKFIAEGSNMGSTPEAIAVFETARSTATGPSEAVWYGPPKAANLGGVAVSGLEMAQNSQRITWTSERVDQELKRIMINCFNECIDYAKKYTKDGKVLPSLVKGANIASFIKVSDAMFDQGDVF | 45 µM | 13 s⁻¹ | 370 µM | 13 s⁻¹ | 8600 µM | 13 s⁻¹ | – |
